Data set [1] in a line: anti-V5 immunoblot of culture medium. Background: In western blotting, separated proteins are transferred to a membrane and probed.
The nature of data set [2]: NP-40-insoluble fraction, anti-V5 immunoblot.
Where [3] appears, read: glycan lost, control: wild type.
Where [4] appears, read: glycan changed form, control: untreated.
[5] abbreviates: glycan lost, control: untreated.

Take Surfactant protein A2 (SP-A2): N207A: the expression_or_secretion entry in data set [1] (setting [3]) is “decreases”. In addition, the “other: NP-40-insoluble aggregation” value in data set [2] (setting [3]) was “increases”.
For Surfactant protein A2 (SP-A2): N207Q, in that order: “decreases” and “increases”.
As for Surfactant protein A2 (SP-A2): N207S, in data set [1] (setting [3]), the expression_or_secretion entry is on record as “decreases”. Besides, the “other: NP-40-insoluble aggregation” value in data set [2] (setting [3]) was “increases”.
For Surfactant protein A2 (SP-A2): N207T, in that order: “decreases” and “increases”.
Turning to “Surfactant protein A2 (SP-A2): swainsonine”, the expression_or_secretion entry in data set [1] (setting [4]) is “no change”. In data set [2] (setting [4]), the “other: NP-40-insoluble aggregation” value was “no change”.
For the substance “Surfactant protein A2 (SP-A2): tunicamycin”, the expression_or_secretion result in data set [1] (setting [5]) was “decreases”. For the same substance, the “other: NP-40-insoluble aggregation” value in data set [2] (setting [5]) is given as “increases”.
